Results taken from patent publication US9696303.

Tests used:
[1] = molecular target: HRP-labelled Concavalin A (UniProt P02866); assay: capillary displacement of HRP-labelled Concavalin A from immobilised yeast mannoprotein; platform of Example 2; HRP substrate, spectrophotometer
[2] = molecular target: HRP-labelled Concavalin A (UniProt P02866); assay: capillary displacement of HRP-labelled Concavalin A from immobilised yeast mannoprotein; platform of Example 4; HRP substrate, spectrophotometer
[3] = molecular target: HRP-labelled Concavalin A (UniProt P02866); assay: capillary displacement of HRP-labelled Concavalin A from immobilised yeast mannoprotein; platform of Example 3; HRP substrate, spectrophotometer

Chain of UniProt P02866 (P02866 30-281 limits assumed): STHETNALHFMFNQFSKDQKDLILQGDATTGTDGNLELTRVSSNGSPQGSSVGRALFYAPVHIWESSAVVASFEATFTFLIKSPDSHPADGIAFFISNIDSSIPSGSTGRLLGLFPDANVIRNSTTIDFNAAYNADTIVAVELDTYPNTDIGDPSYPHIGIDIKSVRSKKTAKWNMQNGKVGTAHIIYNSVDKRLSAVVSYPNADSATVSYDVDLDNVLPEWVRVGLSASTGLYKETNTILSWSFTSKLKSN

Substance: polystyrene beads with immobilised yeast mannoprotein
- absorbance at 446-456 nm (absorbance (456 nm)) [1]: 3
- absorbance at 446-456 nm (absorbance (446 nm)) [2]: > 4
- absorbance at 446-456 nm (absorbance (446 nm)) [3]: 2.22

Substance: yeast mannoprotein
- absorbance at 446-456 nm (absorbance (446 nm)) [2]: 2.5
- absorbance at 446-456 nm (absorbance (448.5 nm)) [3]: 2.7
